Results taken from publication PMC10956426, “Lipid-Binding Regions within PKC-Related Serine/Threonine Protein Kinase N1 (PKN1) Required for Its Regulation” (Biochemistry, 2024).
“And” between values parts separate entries of the source, which are not always exact repeats. Equal values may be shown once.

Columns and labels:
[1] = target: the molecule itself; experiment: MALDI-TOF mass spectrometry; sinapinic acid matrix in 70% acetonitrile, 0.05% TFA; positive ion-linear mode
[2] = target: the molecule itself; experiment: SEC; 25 mL Sephacryl 200 (S-200) column, 20 mM phosphate buffer pH 7.4, 150 mM NaCl, 4 °C; refolded PKN1-(C2); calibrated column
[3] = target: the molecule itself; experiment: SEC; Superdex-200 Increase (10/300 GL), 50 mM Tris-HCl pH 7.5, 150 mM NaCl, 0.075% Brij-35; native conditions

B1: PKN1-(C2)-(342–605) (domain or fragment)
chain: not shown
notes: PKC-related serine/threonine protein kinase N1 (PKN1), rat, residues 342-605 (C2-like domain and part of the hinge region), amplified by PCR from rat liver; Cloned between NdeI and XhoI of pET15b; this vector probably adds an N-terminal His tag with a thrombin site, and no cleavage is described; also called PKN1-(342–605); histidine-tagged PKN1 (residues 342–605)
stoichiometry N [1]: 2
stoichiometry N [2]: 3 and 4

B2: PKN1-(25–485) (domain or fragment)
chain: not shown
notes: PKC-related serine/threonine protein kinase N1 (PKN1), rat, residues 25-485 (HR1 and the AlphaFold-defined C2 region 310-473); The pET15b-PKN1-(25–485) plasmid was synthesized commercially; the vector probably adds an N-terminal His tag, and no cleavage is described; also called histidine-tagged PKN1 (residues 25–485)
stoichiometry N [3]: 3
